From paper doi:10.1101/2023.09.01.555870 (bioRxiv, 2023)

Molecular target: the molecule itself
Experiment: NMR solution structure

B1: carboxy-terminal domain (CTD) fragment of λ Ea22 (102-182) (domain or fragment, bacteriophage λ)
chain: SNEVREDGNQFLVVRHPGKTPVIKHCTGDLEEFLRQLIEQDPLVTIDIITHRYYGVGGQWVQDAGEYLHMMSDAGIRIKGEIETAV
  binding result: binds
